Experimental data published in patent US20140017168A1 (published 2014).
*: point of attachment. NOTA = O=C(O)CN1CCN(CC(=O)O)CCN(CC(=O)*)CC1; Aoc = NCCCCCCCC(=O)O

Columns and labels:
[1] = target: T1, gastrin-releasing peptide receptor on PC-3 cells (UniProt P30550 1-384, limits assumed); assay: competition with 125I-BBN on PC-3 cells, inhibitor 250 to 2 nM
T1 construct: whole, on cells
Protocol: (§1) A NOTA-conjugated bombesin derivative (IMP468) was prepared as described above. […] Our initial experiment was to determine if IMP468 could specifically block bombesin from binding to PC-3 cells. We used IMP333 as a non-specific control. […] A range of 56 to 0.44 nM was used as our inhibitory concentrations.
This experiment was repeated using a commercially available BBN peptide. We increased the amount of inhibitory peptide from 250 to 2 nM to block the ¹²⁵I-BBN from binding to PC-3 cells.

[2] = target: T1, gastrin-releasing peptide receptor on …; assay: competition with 125I-bombesin on 3x10^6 PC-3 cells, inhibitor 56 to 0.44 nM
Protocol: as §1

T1 sequence (P30550 whole entry): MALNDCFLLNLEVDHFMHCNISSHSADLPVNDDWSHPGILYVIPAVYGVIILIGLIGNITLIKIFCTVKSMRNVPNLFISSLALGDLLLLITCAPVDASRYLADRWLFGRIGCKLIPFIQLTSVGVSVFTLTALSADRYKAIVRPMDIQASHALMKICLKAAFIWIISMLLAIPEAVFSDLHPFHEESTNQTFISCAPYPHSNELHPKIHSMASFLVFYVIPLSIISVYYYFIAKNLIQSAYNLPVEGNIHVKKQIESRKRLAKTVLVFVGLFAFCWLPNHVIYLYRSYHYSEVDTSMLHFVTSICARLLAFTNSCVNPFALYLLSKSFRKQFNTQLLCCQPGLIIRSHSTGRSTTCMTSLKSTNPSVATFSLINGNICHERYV

IC50 [1]: 35.9 nM
IC50 [2]: 21.5 nM
B1: IMP468 (NOTA-NH-(CH2)7CO-Gln-Trp-Val-Trp-Ala-Val-Gly-His-Leu-Met-NH2) (peptide)
peptide: {NOTA-Aoc}-QWVWAVGHLM-NH2
SMILES: CSCC[C@H](NC(=O)[C@H](CC(C)C)NC(=O)[C@H](Cc1c[nH]cn1)NC(=O)CNC(=O)[C@@H](NC(=O)[C@H](C)NC(=O)[C@H](Cc1c[nH]c2ccccc12)NC(=O)[C@@H](NC(=O)[C@H](Cc1c[nH]c2ccccc12)NC(=O)[C@H](CCC(N)=O)NC(=O)CCCCCCCNC(=O)CN1CCN(CC(=O)O)CCN(CC(=O)O)CC1)C(C)C)C(C)C)C(N)=O
notes: also called NOTA-conjugated bombesin derivative; bombesin analogue
